In the supplement of paper PMC10567573:

B1: SNX8 (parent)
chain: RMVPALPPKRMLGADREFIEARRR

Variants of: B1
Experiment: protein stability index of a GFP-peptide fusion (GPS, HEK-293T) (PSI 1-6); higher = more stable
Conditions: c terminus: a fixed tail appended
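Also: lentivirally expressed fusions sorted by FACS into six bins by GFP to DsRed ratio, PSI derived from sequencing read proportions per bin multiplied by bin number.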

Protein stability index: each site, then its substitutions
R1: E 3.56 | Q 3.54 | N 2.71 | D 2.87 | M 2.88 | Y 1.81 | S 3.8 | P 3.83 | F 2.22 | T 2.69 | G 3.77 | C 3.28 | K 3.74
M11: D 4.62 | Y 2.99 | H 3.52 | P 4.42 | N 3.77 | E 3.91 | G 4.28 | R 4.58 | W 2.54 | S 4.23 | Q 3.6 | I 4.78 | L 3.69 | C 3.46 | F 3.36 | K 3.94 | A 3.86
A14: F 3.37 | L 3.55 | P 4 | T 3.63 | R 3.73 | V 3.02 | M 3.24 | K 3.84 | I 3.54 | Q 3.81 | E 4.34 | S 3.9 | G 3.96 | N 4.72 | W 2.51
R10: G 4.16 | N 3.98 | F 3.39 | A 4.23 | Y 3.71 | C 3.61 | Q 4.39 | K 3.81 | D 4.61 | L 3.5
R22: C 4 | A 4.33 | F 3.58 | T 3.75 | Q 4.05 | V 3.33 | W 2.73 | N 3.77 | D 4.53 | E 4.43 | G 4.02 | L 2.92 | S 3.75 | K 4.09
P4: L 2.28 | Y 3.31 | R 4.13 | K 3.81 | N 3.41 | E 3.67 | D 3.57 | A 3.32 | Q 3.49 | W 2.77
E17: F 2.08 | H 3.45 | I 2.64 | D 3.67 | V 2.81 | L 3.37 | P 4.09 | T 3.55 | Q 3.34 | W 2.19 | M 2.38 | K 4.19 | S 3.87 | G 3.97 | R 4.1
R23: G 3.79 | N 3.94 | H 2.21 | A 2.54 | I 2.58 | L 3.65 | F 1.75 | E 4.16 | V 3.4 | Y 2.97 | D 4.53 | P 3.66 | M 2.4
K9: D 4.12 | F 3.83 | Q 4.73 | V 4.61 | G 3.6 | P 4.37 | C 2.95 | S 4.35 | A 4.09 | H 4.53 | Y 3.95 | M 3.81 | I 4.17 | N 4.26 | L 4.01
L12: M 3.95 | R 4.19 | F 4.12 | Y 3.73 | H 4 | S 4.41 | Q 4.61 | I 4.08 | K 3.25 | P 4.18 | G 4.66 | V 4.42 | W 4.05
V3: Y 2.96 | K 4.11 | G 3.07 | N 4.08 | R 3.94 | Q 3.9 | S 3.88 | P 3.81 | W 1.7 | E 4.49 | D 4.63 | L 1.85
E20: S 4 | A 3.51 | P 4.24 | W 3.26 | T 3.99 | K 3.94 | D 4.31 | F 3.12 | N 4.12 | Q 4.01 | M 3.39 | H 3.98 | V 4.11 | C 4.06 | Y 3.68
A5: Y 3.12 | L 4 | V 4.01 | T 3.81 | K 3.77 | D 4.23 | Q 4.1 | R 4.31 | S 4.05 | C 3.85 | E 4.12 | M 3.49 | P 3.59 | F 3.24 | N 4.08 | I 3.2 | H 3.75
I19: P 4.65 | R 4.16 | A 4.23 | V 4.09 | S 3.43 | G 3.96 | C 3.36 | E 4.11 | Y 3.98 | L 3.06 | Q 4.29 | M 3.55 | K 4.26 | W 3.82
G13: H 3.37 | I 2.79 | P 2.83 | R 4.06 | T 3.14 | M 2.43 | N 3.29 | S 3.54 | E 3.57 | Y 3.13 | K 3.72 | L 2.69 | V 2.54 | A 2.81
D15: T 3.69 | F 1.99 | L 1.52 | Y 2.64 | N 3.43 | Q 3.93 | K 3.16 | A 2.77 | C 2.42 | M 1.56 | P 4.16 | G 3.98 | W 2.5 | H 3.22 | E 3.52
L6: M 3.73 | C 3.67 | T 3.63 | F 3.45 | S 4.84 | G 3.88 | Q 4.02 | N 3.96 | A 4 | E 4.52
P7: I 3.62 | T 3.6 | W 3.3 | Y 3.49 | M 3.52 | Q 3.5 | R 3.76 | V 4.05 | A 3.58 | F 3.4 | L 3.18 | E 4.35 | N 3.45
M2: A 3.94 | F 3.44 | D 4.17 | L 2.76 | G 3.83 | Q 4.57 | I 3.01 | S 4.46 | K 4.1 | W 2.14 | R 3.94 | N 3.99 | H 4.04 | T 4.08 | E 4.52 | V 3.58 | P 4.53
F18: N 4.45 | L 3.84 | R 4.52 | Y 4.07 | S 4.38 | Q 4.46 | T 4.2 | H 4.18 | I 3.85 | W 3.75 | K 4.26 | M 3.78 | A 3.56
P8: D 3.82 | C 2.77 | S 3.73 | L 3.17 | Q 3.79 | H 3.85 | F 3.18 | G 3.53 | K 3.87 | W 3.31 | V 3.44 | T 3.31 | E 3.86 | A 4.23 | M 3.06
R16: I 2.78 | T 3.56 | F 1.96 | E 4.41 | W 2.42 | V 3.62 | L 2.65 | M 3.55 | A 4.04 | S 3.91 | N 4.39 | P 4.33 | H 3.67 | G 3.88 | K 3.71 | D 4.07 | Y 2.08
A21: M 3.04 | Q 3.61 | N 4.52 | L 4.1 | H 4.32 | K 4.19 | R 3.56 | P 3.88 | E 3.43 | Y 3.24 | V 3.76 | D 3.83 | T 3.96
R24: N 3.66 | W 3.05 | M 2.96 | P 3.53 | L 2.92 | G 3.94 | Y 2.38 | T 3.95 | I 3.11 | D 4 | Q 3.52 | C 3.53 | V 3.31 | F 3.2
